Source: doi:10.1101/630269

Molecular target: Dendritic cell-specific ICAM-3 grabbing non-integrin (DC-SIGN, CD209) (human) (UniProt Q9NNX6)
Assay: virion-cell binding assay

Sequence of UniProt Q9NNX6 (Q9NNX6 whole entry): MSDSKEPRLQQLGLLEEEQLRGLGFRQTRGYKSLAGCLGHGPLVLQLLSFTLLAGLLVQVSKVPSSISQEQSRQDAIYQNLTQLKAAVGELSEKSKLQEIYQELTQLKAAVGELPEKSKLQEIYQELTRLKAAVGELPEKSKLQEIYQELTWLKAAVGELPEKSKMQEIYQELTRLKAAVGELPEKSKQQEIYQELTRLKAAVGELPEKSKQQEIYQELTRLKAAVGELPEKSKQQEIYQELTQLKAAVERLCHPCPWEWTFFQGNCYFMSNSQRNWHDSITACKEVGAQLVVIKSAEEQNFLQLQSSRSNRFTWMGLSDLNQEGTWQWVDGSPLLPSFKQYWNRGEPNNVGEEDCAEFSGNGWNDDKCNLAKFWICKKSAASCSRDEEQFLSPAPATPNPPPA

EBOV Makona glycoprotein GP-V82 (natural protein)
fold binding relative to GP-A82: 2 fold
